# According to patent US9255257B2, “PmST1 mutants for chemoenzymatic synthesis of sialyl lewis X compounds” (THE REGENTS OF THE UNIVERSITY OF CALIFORNIA, priority 2011, dated 2016):
# Assays:
# [1] = tested on: Cc1cc(=O)oc2cc(O[C@@H]3O[C@H](CO)[C@@H](O[C@@H]4O[C@H](CO)[C@H](O)[C@H](O)[C@H]4O)[C@H](O)[C@H]3O)ccc12; assay: α2-3-sialyltransferase activity, LacβMU as acceptor; assay type: biochemical, Pasteurella multocida; conditions: other: apparent, acceptor, CMP-Neu5Ac 1 mM, Tris-HCl pH 8.5, 37° C.
# Description: (§1) To obtain the apparent kinetic parameters of LacβMU as the acceptor for the α2-3-sialyltransferase activity, the kinetic assays were performed in duplicate in reaction mixtures of 10 μL containing Tris-HCl buffer (100 mM, pH 8.5), a fixed concentration of CMP-Neu5Ac (1 mM), different concentrations of LacβMU (0.2, 0.5, 1.0, 2.0, 5.0, and 9.0 mM) and the mutant proteins (2 μg mL^−1 of E271F, 2 μg mL^−1 of R313Y, and 1.6 μg mL^−1 of E271F/R313Y). All reactions were allowed to proceed at 37° C. for 5 min (E271F), 7 min (R313Y), and 10 min (E271F/R313Y). The apparent kinetic parameters were obtained by fitting the experimental data (the average values of duplicate assay results) into the Michaelis-Menten equation using Grafit 5.0.
# (§2) To obtain the apparent kinetic parameters of CMP-Neu5Ac as the donor for the α2-3-sialyltransferase activity, the kinetic assays were performed in duplicate in reaction mixtures of 10 μL containing Tris-HCl buffer (100 mM, pH 8.5), a fixed concentration of LacβMU (1 mM), different concentrations of CMP-Neu5Ac (0.1, 0.2, 0.5, 1.0, 2.0, 5.0, 10.0 and 20.0 mM) and the mutant proteins (2 μg mL^−1 of E271F, 2 μg mL^−1 of R313Y, and 1.6 μg mL^−1 of E271F/R313Y). All reactions were allowed to proceed at 37° C. for 2 min (E271F), 7 min (R313Y), and 5 min (E271F/R313Y). The apparent kinetic parameters were obtained by fitting the experimental data (the average values of duplicate assay results) into the Michaelis-Menten equation using Grafit 5.0.
# (§3) All the sialidase and α2-3-sialyltransferase assays were performed in an HPLC system. Reactions were stopped by adding 10 μL of ethanol. After necessary dilutions were performed to adjust the concentrations of the fluorescent-labeled compounds, the samples were then kept on ice until aliquots of 8 μL were injected and analyzed by a Shimadzu LC-6AD system equipped with a membrane on-line degasser, a temperature control unit, and a fluorescence detector (Shimadzu RF-10AXL). A reverse-phase Premier C18 column (250×4.6 mm i.d., 5 μm particle size, Shimadzu) protected with a C18 guard column cartridge was used. The mobile phase was 25% acetonitrile. The fluorescent compounds LacβMU and Neu5Acα2-3LacβMU were detected by excitation at 325 nm and emission at 372 nm.
# [2] = tested on: CC(=O)N[C@H]1[C@H]([C@H](O)[C@H](O)CO)O[C@](OP(=O)(O)OC[C@H]2O[C@@H](n3ccc(N)nc3=O)[C@H](O)[C@@H]2O)(C(=O)O)C[C@@H]1O; assay: as above; assay type: biochemical, Pasteurella multocida; conditions: other: apparent, donor, LacβMU 1 mM, Tris-HCl pH 8.5, 37° C.
# Description: as §1, §2, §3
# [3] = tested on: CC(=O)N[C@H]1[C@H]([C@H](O)[C@H](O)CO)O[C@@](O[C@H]2[C@@H](O)[C@@H](CO)O[C@@H](O[C@H]3[C@H](O)[C@@H](O)[C@H](Oc4ccc5c(C)cc(=O)oc5c4)O[C@@H]3CO)[C@@H]2O)(C(=O)O)C[C@@H]1O; assay: α2-3-sialidase activity, Neu5Acα2-3LacβMU as substrate; assay type: biochemical, Pasteurella multocida; conditions: other: apparent, MES pH 5.5, 37° C.
# Description: Site-directed mutagenesis. Site-directed mutagenesis was carried out using the QuikChange multi-site-directed mutagenesis kit from Stratagene according to the manufacturer's protocol. The primers used were 5′-[…] -3′ (SEQ ID NO:32) for E271F and 5′-[…]-3′ (SEQ ID NO:33) for R313Y. The sites of mutations are underlined.
# Protein Expression and Purification. The plasmids containing the mutant genes were transformed into E. coli BL21 (DE3). The E. coli cells were cultured in LB-rich media (10 g L^−1 tryptone, 5 g L^−1 yeast extract, and 10 g L^−1 NaCl) supplemented with ampicillin (100 μg mL^−1). Overexpression of the mutant proteins was achieved by adding 0.1 mM of isopropyl-1-thio-β-D-galactopyranoside (IPTG) to the E. coli culture when its OD600 nm reached 0.8. […]
# as §3, with “Reactions were stopped by adding 10 μL of ethanol.” left out, “A reverse-phase Premier C18 column (250×4.6 mm i.d., 5 μm particle size, Shimadzu) protected with a C18 guard column cartridge was used. The mobile phase was 25% acetonitrile.” left out
# [4] = tested on: CC(=O)N[C@H]1[C@H]([C@H](O)[C@H](O)CO)O[C@](OP(=O)(O)OC[C@H]2O[C@@H](n3ccc(N)nc3=O)[C@H](O)[C@@H]2O)(C(=O)O)C[C@@H]1O; assay: purified protein, by the assay type; conditions: other: apparent, donor hydrolysis, H311A, Tris-HCl pH 8.5, 37° C., 20 min
# Description: (§4) The reactions were stopped by adding 10 μL of pre-chilled ethanol. The mixtures were incubated on ice for 30 min and centrifuged at 13,000 rpm for 5 min. The supernatants were diluted with borate buffer (25 mM, pH 9.5) and aliquotes of 5 μL each were injected to a Beckman Coulter P/ACE™ MDQ Capillary Electrophoresis system equipped with a capillary (60 cm×75 μm i.d.) and monitored at 254 nm. The apparent kinetic parameters were obtained by fitting the experimental data (the average values of duplicate assay results) into the Michaelis-Menten equation using Grafit 5.0.
# [5] = Apparent kinetics of the α2-3-sialidase activity (HPLC, fluorescent sialoside substrate); assay type: biochemical; conditions: substrate Neu5Acα2-3LacβMU
# Description: All the sialidase and α2-3-sialyltransferase assays were performed in an HPLC system. Reactions were stopped by adding 10 μL of ethanol. […] The mobile phase was 25% acetonitrile.
# Kinetics of the α2-3-sialidase activity of PmST1 mutants.
# [6] = Kinetics of the donor (CMP-Neu5Ac) hydrolysis activity by capillary electrophoresis; assay type: biochemical
# Description: as §4
molecule,measurement,setting,value
"Pasteurella multocida PmST1 double mutant E271F/R313Y of SEQ ID NO: 13 (E247F/R289Y of Δ24PmST1, SEQ ID NO: 11) (Pasteurella multocida; E271F/R313Y)",Km,[1]; E271F/R313Y,540 ± 40 µM
same,Km,[2]; E271F/R313Y,340 ± 20 µM
"Pasteurella multocida PmST1 mutant E271F of SEQ ID NO: 13 (E247F of Δ24PmST1, SEQ ID NO: 7) (Pasteurella multocida; E271F)",Km,[1]; E271F,710 ± 120 µM
same,Km,[2]; E271F,180 ± 10 µM
same,Km,"[3]; E271F, 1 min",5700 ± 900 µM
Pasteurella multocida PmST1 mutant H311A (Pasteurella multocida; H311A),Km,[4],1800 ± 200 µM
"Pasteurella multocida PmST1 mutant R313Y of SEQ ID NO: 13 (R289Y of Δ24PmST1, SEQ ID NO: 9) (Pasteurella multocida; R313Y)",Km,[1]; R313Y,670 ± 50 µM
same,Km,[2]; R313Y,620 ± 40 µM
same,Km,"[3]; R313Y, 25 min",51000 ± 5000 µM
D141A (protein) MKNRRLNFKLFFLIIFSLFSTLSWSKTITLYLDPASLPALNQLMDFTQNNEDKTHPRIFGLSRFKIPDNIITQYQNIHFVELKDNRPTEALFTILDQYPGNIELNIHLNIAHSVQLIRPILAYRFKHLDRVSIQQLNLYDAGSMEYVDLEKEENKDISAEIKQAEKQLSHYLLTGKIKFDNPTIARYVWQSAFPVKYHFLSTDYFEKAEFLQPLKEYLAENYQKMDWTAYQQLTPEQQAFYLTLVGFNDEVKQSLEVQQAKFIFTGTTTWEGNTDVREYYAQQQLNLLNHFTQAEGDLFIGDHYKIYFKGHPRGGEINDYILNNAKNITNIPANISFEVLMMTGLLPDKVGGVASSLYFSLPKEKISHIIFTSNKQVKSKEDALNNPYVKVMRRLGIIDESQVIFWDSLKQL,decrease of α2-3-sialidase activity (catalytic efficiency kcat/Km) compared to wild-type PmST1,[5],"about 7,300 fold"
same,decrease of efficiency of CMP-Neu5Ac (donor) hydrolysis activity compared to WT,[6],"1,000 fold"
H311A (protein) MKNRRLNFKLFFLIIFSLFSTLSWSKTITLYLDPASLPALNQLMDFTQNNEDKTHPRIFGLSRFKIPDNIITQYQNIHFVELKDNRPTEALFTILDQYPGNIELNIHLNIAHSVQLIRPILAYRFKHLDRVSIQQLNLYDDGSMEYVDLEKEENKDISAEIKQAEKQLSHYLLTGKIKFDNPTIARYVWQSAFPVKYHFLSTDYFEKAEFLQPLKEYLAENYQKMDWTAYQQLTPEQQAFYLTLVGFNDEVKQSLEVQQAKFIFTGTTTWEGNTDVREYYAQQQLNLLNHFTQAEGDLFIGDHYKIYFKGAPRGGEINDYILNNAKNITNIPANISFEVLMMTGLLPDKVGGVASSLYFSLPKEKISHIIFTSNKQVKSKEDALNNPYVKVMRRLGIIDESQVIFWDSLKQL,decrease of efficiency of CMP-Neu5Ac (donor) hydrolysis activity compared to WT,[6],16 fold
"E271F (protein, listed as Pasteurella multocida, PmST1 wild-type glycosyltransferase family 80 (GT80), GT80 sialyltransferase, Pm0188Ph) MKNRRLNFKLFFLIIFSLFSTLSWSKTITLYLDPASLPALNQLMDFTQNNEDKTHPRIFGLSRFKIPDNIITQYQNIHFVELKDNRPTEALFTILDQYPGNIELNIHLNIAHSVQLIRPILAYRFKHLDRVSIQQLNLYDDGSMEYVDLEKEENKDISAEIKQAEKQLSHYLLTGKIKFDNPTIARYVWQSAFPVKYHFLSTDYFEKAEFLQPLKEYLAENYQKMDWTAYQQLTPEQQAFYLTLVGFNDEVKQSLEVQQAKFIFTGTTTWFGNTDVREYYAQQQLNLLNHFTQAEGDLFIGDHYKIYFKGHPRGGEINDYILNNAKNITNIPANISFEVLMMTGLLPDKVGGVASSLYFSLPKEKISHIIFTSNKQVKSKEDALNNPYVKVMRRLGIIDESQVIFWDSLKQL",decrease in sialidase Km value compared to wild-type PmST1,[5],4.2 fold
same,decrease in sialidase kcat (turnover number) compared to wild-type PmST1,[5],250 fold
same,decrease of α2-3-sialidase activity (catalytic efficiency kcat/Km) compared to wild-type PmST1,[5],about 59 fold
"R313Y (protein, listed as Pasteurella multocida, PmST1 wild-type glycosyltransferase family 80 (GT80), GT80 sialyltransferase, Pm0188Ph) MKNRRLNFKLFFLIIFSLFSTLSWSKTITLYLDPASLPALNQLMDFTQNNEDKTHPRIFGLSRFKIPDNIITQYQNIHFVELKDNRPTEALFTILDQYPGNIELNIHLNIAHSVQLIRPILAYRFKHLDRVSIQQLNLYDDGSMEYVDLEKEENKDISAEIKQAEKQLSHYLLTGKIKFDNPTIARYVWQSAFPVKYHFLSTDYFEKAEFLQPLKEYLAENYQKMDWTAYQQLTPEQQAFYLTLVGFNDEVKQSLEVQQAKFIFTGTTTWEGNTDVREYYAQQQLNLLNHFTQAEGDLFIGDHYKIYFKGHPYGGEINDYILNNAKNITNIPANISFEVLMMTGLLPDKVGGVASSLYFSLPKEKISHIIFTSNKQVKSKEDALNNPYVKVMRRLGIIDESQVIFWDSLKQL",decrease in sialidase kcat (turnover number) compared to wild-type PmST1,[5],"1,278 fold"
same,decrease of α2-3-sialidase activity (catalytic efficiency kcat/Km) compared to wild-type PmST1,[5],"2,639 fold"
same,increase in sialidase Km value compared to wild-type PmST1,[5],2 fold
